Assay results reported in PMC8006934.
pKd: −log10 of the molar value.

What was measured:
[1] = biological target: FcγRIIb, human, C-terminally biotinylated (human) (UniProt P31994); test: SPR; conditions: natural protein; remark: other sources report otherwise
[2] = biological target: FcγRIa, FcγRIIa/b, and FcγRIIIa; test: SPR; IBIS MX96 array; C-terminally biotinylated FcRs spotted at different densities (100–1 nM) on one SensEye G-streptavidin sensor, blocked with biotinylated BSA; CRP injected in 2-fold dilutions from 0.98 to 2,000 nM in 20 mM Tris, 280 mM NaCl, 5 mM CaCl2, pH 8.0; KD by equilibrium fitting to Rmax = 500

Chain of FcγRIIb, human, C-terminally biotinylated (human) (P31994 43-217): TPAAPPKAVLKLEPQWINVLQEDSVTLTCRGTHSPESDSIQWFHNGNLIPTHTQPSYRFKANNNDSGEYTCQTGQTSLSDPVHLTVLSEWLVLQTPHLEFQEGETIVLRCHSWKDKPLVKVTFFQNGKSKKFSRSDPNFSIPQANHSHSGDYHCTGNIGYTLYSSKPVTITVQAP

| pKd [1] | pKd [2] | Substance |
| --- | --- | --- |
| 5.38 |  | C-reactive protein (native CRP from human fluid) (from UniProt P02741 19-224) |
|  | 5.31 to 5.47 | C-reactive protein (native CRP from human fluid) (from UniProt P02741 19-224) (natural protein) |
